From patent EP4335870A1 (NantCell, Inc., dated 2024)

Target: SARS-CoV-2 Spike S1, wildtype (Table 13) (SARS-CoV-2, UniProt P0DTC2 16-685)

B1: N-612-004 (antibody, V domains shown)
VH: EVQLVESGGGLVQPGGSLRLSCAASGFTFSSYYMHWVRQAPGKGLEWVSAISGSGGYTYYADSVKGRFTISRDNSKNTLYLQMNSLRAEDTAVYYCARDRDHAYDWGFDVWGQGTLVTVSS
VL: DIQMTQSPSSLSASVGDRVTITCQASQDISNYLNWYQQKPGKAPKLLIYDASNLETGVPSRFSGSGSGTDFTFTISSLQPEDIATYYCQQWADWPLTFGQGTKVEIK
How did the Kd turn out when B1 was run?
Its Kd is 0.62 nM.

B2: N-612-014 (antibody, V domains shown)
VH: EVQLVESGGGLVQPGGSLRLSCAASGFTFSSYAMTWVRQAPGKGLEWVSYISGSGGGTYYADSVKGRFTISRDNSKNTLYLQMNSLRAEDTAVYYCARDRWASGWLAFDVWGQGTLVTVSS
VL: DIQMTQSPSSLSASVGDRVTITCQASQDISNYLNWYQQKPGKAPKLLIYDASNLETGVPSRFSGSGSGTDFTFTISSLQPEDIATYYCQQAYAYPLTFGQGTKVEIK
For B2, which Kd is on record?
The Kd was 11.4 nM.

B3: N-612-017 (antibody, V domains shown)
VH: EVQLVESGGGLVQPGGSLRLSCAASGFTFSSYAMHWVRQAPGKGLEWVSAIWGSGSNTYYADSVKGRFTISRDNSKNTLYLQMNSLRAEDTAVYYCARGRDLAAFTKTAFDVWGQGTLVTVSS
VL: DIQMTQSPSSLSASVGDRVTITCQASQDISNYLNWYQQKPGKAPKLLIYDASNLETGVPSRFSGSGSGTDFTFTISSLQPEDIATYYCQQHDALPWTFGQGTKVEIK
For B3, which Kd is on record?
Its Kd is 12 nM.

B4: N-612-056 (antibody, V domains shown)
VH: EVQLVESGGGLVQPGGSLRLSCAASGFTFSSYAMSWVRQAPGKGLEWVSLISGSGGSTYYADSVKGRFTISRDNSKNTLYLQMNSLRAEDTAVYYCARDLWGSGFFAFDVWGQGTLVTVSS
VL: DIQMTQSPSSLSASVGDRVTITCQASQDISNYLNWYQQKPGKAPKLLIYDASNLETGVPSRFSGSGSGTDFTFTISSLQPEDIATYYCQQDAGTPLTFGQGTKVEIK
B4 was tested. Which Kd did it give?
The Kd was 4.5 nM.
